Article PMC4661386

Target: CUB_C (CUB module and C-terminal peptide from human TSG-6), wild type (human) (UniProt P98066)
Test: SPR; CUB_C (WT or E183S) amine-coupled to a CM5 chip (~1000 RU); rHC1 (WT or D298A) injected at 30 ul/min in 20 mM HEPES, 150 mM NaCl, 0.05% Tween 20, pH 7.4 (HBS-T), no EDTA (as purified CUB_C contains Ca2+); multicycle kinetics, 1:1 Langmuir model

B1: Recombinant human heavy chain 1 (rHC1) of inter-alpha-inhibitor, wild type (natural protein)
chain: SKSSEKRQAVDTAVDGVFIRSLKVNCKVTSRFAHYVVTSQVVNTANEAREVAFDLEIPKTAFISDFAVTADGNAFIGDIKDKVTAWKQYRKAAISGENAGLVRASGRTMEQFTIHLTVNPQSKVTFQLTYEEVLKRNHMQYEIVIKVKPKQLVHHFEIDVDIFEPQGISKLDAQASFLPKELAAQTIKKSFSGKKGHVLFRPTVSQQQSCPTCSTSLLNGHFKVTYDVSRDKICDLLVANNHFAHFFAPQNLTNMNKNVVFVIDISGSMRGQKVKQTKEALLKILGDMQPGDYFDLVLFGTRVQSWKGSLVQASEANLQAAQDFVRGFSLDEATNLNGGLLRGIEILNQVQESLPELSNHASILIMLTDGDPTEGVTDRSQILKNVRNAIRGRFPLYNLGFGHNVDFNFLEVMSMENNGRAQRIYEDHDATQQLQGFYSQVAKPLLVDVDLQYPQDAVLALTQNHHKQYYEGSEIVVAGRIADNKQSSFKADVQAHGEGQEFSITCLVDEEEMKKLLRERGHMLENHVERLWAYLTIQELLAKRMKVDREERANLSSQALQMSLDYGFVTPLTSMSIRGMADQDGLKPTIDKPSEDSPPLEMLGPRRTFVLSALQPSPTHSSSNTQRLPDRVTGVDTD
Kd: 2.1 nM
